Assay [1] concerns the target T1, Recombinant Human VEGFR2/KDR Protein, His tag (hVEGFR2-his) (human, UniProt P35968 20-764).
T1 construct: Expressed in HEK293, bought from ACRO Biosystems; also called human VEGFR2-his; Human VEGFR2/KDR-His
Briefly: ELISA, hVEGFR2-his coated. Here is the method: Same protocol of Example 2 antibody screening by ELISA assay. Briefly, 0.5 μg/ml hVEGFR2-his was coated and serially diluted purified antibodies would bind to coated antigen. Using HRP conjugated goat anti-mouse Fc antibody could detect binding signals of each antibody.
The hybridoma antibodies have similar affinity to human.
(An ELISA detects its analyte on a solid surface through an enzyme-linked reagent.)

Assay [2] addresses T1, Recombinant Human VEGFR2/KDR Protein, …. Briefly: competition ELISA on coated hVEGFR2-his: hybridoma antibody titrated against 100 ng/ml chimeric 002C, anti-human IgG Fc-HRP.
Assay [3] addresses T2, human VEGFR2 on HUVEC cells (human, UniProt P35968 20-1356).
T2 construct: also called hVEGFR2 on HUVEC
Briefly: flow cytometry on HUVEC cells, percent shifted cells (Shift%), anti-mouse IgG-PE. Here is the method: Log phase HUVEC cells were collected, counted and resuspended in FACS buffer (5% BSA+PBS). 2×10∧5 cells were added to each tube and then washed once with PBS (1500 rpm, 5 mins, RT). Then […] serial diluted VEGFR2 antibodies purified from hybridoma supernatant in FACS buffer were added into corresponding tubes and were incubated at 4° C. for 1 hr. The cells were then washed twice with 1 ml PBS, followed by adding 100 μl/tube of 2nd antibody (1:400 anti-mIgG (H+L)-PE, Cell signaling #8887) in FACS buffer. The cells were incubated at 4° C. for 0.5 hr and then washed twice with PBS, followed by resuspending cells in 600 μl PBS for each sample. The cells were then transferred into FACS tube and the bindings of the antibodies to the cells were detected using flow cytometry (BD Accuri C6) (see FIG. 3).
The percentage of positive binding cells was calculated and fit by Graphpad Prism Software.

Assay [4] deals with T1, Recombinant Human VEGFR2/KDR Protein, …. Nature of the assay: competition ELISA: hVEGFR2-his coated (1 ug/ml), antibody titrated, then 0.3 ug/ml hVEGF-A added and bound VEGF-A detected; blocked ligand hVEGF-A. Here is the method: High-binding clear polystyrene 96 well plates were coated with 100 μl/well of 1 μg/ml hVEGFR2-his overnight at 4° C. After washing and blocking, serial diluted antibodies (from 10 μg/ml to 0.0006 μg/ml) were added and incubate for 1 hour at RT. 0.3 μg/ml hVEGF-A (Acrobiosystem, Cat #VE5-H4210) were added and incubated for 2 hour at RT. Then 100 μl/well of 0.25 μg/ml Biotinylated Rabbit Anti-human VEGF-A (Peprotech, Cat #400-P10Bt) was then added for detecting bound VEGF-A. Then 100 μl/well of a solution of HRP conjugated Neutravidin antibody (Pierce, Cat #31001) and TMB were added sequentially. Finally, reaction was terminated using 0.64M H₂SO₄ and plates were read at 450 nm.

The target is the same in assay [5]. Nature of the assay: SPR (Biacore), antibody captured by anti-Fc, antigen 2.5-80 nM. Here is the method: A CM5 sensor chip was activated in each flow cell by 7-min injection (10 μl/min) of freshly prepared 1:1 50 mM N-hydroxysuccinimide (NHS): 200 mM 1-ethyl-3-(3-dimethylaminopropyl)-carbodiimide (EDC). Then anti-human Fc antibody (GE Healthcare) in a concentration of 10 μg/ml in 10 mM sodium acetate buffer PH 5.0 was injected onto the activated chip at 10 μl/min (HBS-EP running buffer: 10 mM HEPES, 150 mM NaCl, 3.4 mM EDTA, 0.005% surfactant P20, pH 7.4). The remaining active coupling sites were blocked by 7 min injection of 1M ethanolamine at 10 μl/min. The immobilization level of each flow cell is ˜9000RU. Antibodies were captured in FC2 by anti-human Fc IgG or anti-mouse Fc (GE Healthcare) to 200˜300RU. FC1 was used as the reference cell. Antigen was injected at varying concentrations (2.5 nM, 5 nM, 10 nM, 20 nM, 40 nM and 80 nM) after capture of antibody. The association time for antibody binding antigen is 180s. Surface Regeneration condition is 120s at 10 μl/min in Gly pH1.5. The signals with captured antibody subtracted from those without captured antibody were calculated with Biacore X100 evaluation software ver. 2.0 (Biacore).

For assay [6] the target is unchanged. Nature of the assay: ELISA, hVEGFR2-his coated, anti-human Fc-HRP; antibody made in 293T cells. Here is the method: Same protocol of Example 4 except using HRP conjugated goat anti-human Fc antibody as secondary antibody. Binding to hVEGFR2-his and rhesus VEGFR2-his (Acrobiosystems, Cat #VE2-C52H3) were also analyzed head-to-head.
Same protocol of Example 9.

One may read the EC50 as the concentration at which the effect is half-maximal. Broadly, the IC50 is the midpoint of a concentration-inhibition curve. The term Kd denotes the equilibrium constant for the complex coming apart. Broadly, the koff is a measure of how fast the partners let go of each other. By kon is commonly meant a measure of how fast the partners come together.

T1 sequence (P35968 other isoform, or with tags, fused parts or gaps): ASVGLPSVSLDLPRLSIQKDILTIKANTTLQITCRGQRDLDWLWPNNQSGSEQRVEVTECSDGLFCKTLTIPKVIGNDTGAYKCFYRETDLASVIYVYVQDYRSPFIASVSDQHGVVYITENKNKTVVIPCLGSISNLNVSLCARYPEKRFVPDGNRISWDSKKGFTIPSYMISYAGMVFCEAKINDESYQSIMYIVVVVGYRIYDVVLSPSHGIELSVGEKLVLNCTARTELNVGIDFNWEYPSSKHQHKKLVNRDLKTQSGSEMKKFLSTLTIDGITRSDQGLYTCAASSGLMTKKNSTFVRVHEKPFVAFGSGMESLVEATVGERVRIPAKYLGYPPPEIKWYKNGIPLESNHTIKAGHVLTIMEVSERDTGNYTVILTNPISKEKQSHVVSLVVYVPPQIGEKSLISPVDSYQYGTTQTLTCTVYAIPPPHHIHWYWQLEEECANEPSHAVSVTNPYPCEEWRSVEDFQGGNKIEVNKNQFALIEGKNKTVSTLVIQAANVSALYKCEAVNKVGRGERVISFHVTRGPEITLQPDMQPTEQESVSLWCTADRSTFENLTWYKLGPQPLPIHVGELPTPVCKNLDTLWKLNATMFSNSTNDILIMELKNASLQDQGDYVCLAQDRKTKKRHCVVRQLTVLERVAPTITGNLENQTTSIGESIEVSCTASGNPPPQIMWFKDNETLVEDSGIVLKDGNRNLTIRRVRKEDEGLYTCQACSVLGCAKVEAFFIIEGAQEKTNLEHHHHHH
T2 sequence (P35968 20-1356 V297I/Q472H limits assumed): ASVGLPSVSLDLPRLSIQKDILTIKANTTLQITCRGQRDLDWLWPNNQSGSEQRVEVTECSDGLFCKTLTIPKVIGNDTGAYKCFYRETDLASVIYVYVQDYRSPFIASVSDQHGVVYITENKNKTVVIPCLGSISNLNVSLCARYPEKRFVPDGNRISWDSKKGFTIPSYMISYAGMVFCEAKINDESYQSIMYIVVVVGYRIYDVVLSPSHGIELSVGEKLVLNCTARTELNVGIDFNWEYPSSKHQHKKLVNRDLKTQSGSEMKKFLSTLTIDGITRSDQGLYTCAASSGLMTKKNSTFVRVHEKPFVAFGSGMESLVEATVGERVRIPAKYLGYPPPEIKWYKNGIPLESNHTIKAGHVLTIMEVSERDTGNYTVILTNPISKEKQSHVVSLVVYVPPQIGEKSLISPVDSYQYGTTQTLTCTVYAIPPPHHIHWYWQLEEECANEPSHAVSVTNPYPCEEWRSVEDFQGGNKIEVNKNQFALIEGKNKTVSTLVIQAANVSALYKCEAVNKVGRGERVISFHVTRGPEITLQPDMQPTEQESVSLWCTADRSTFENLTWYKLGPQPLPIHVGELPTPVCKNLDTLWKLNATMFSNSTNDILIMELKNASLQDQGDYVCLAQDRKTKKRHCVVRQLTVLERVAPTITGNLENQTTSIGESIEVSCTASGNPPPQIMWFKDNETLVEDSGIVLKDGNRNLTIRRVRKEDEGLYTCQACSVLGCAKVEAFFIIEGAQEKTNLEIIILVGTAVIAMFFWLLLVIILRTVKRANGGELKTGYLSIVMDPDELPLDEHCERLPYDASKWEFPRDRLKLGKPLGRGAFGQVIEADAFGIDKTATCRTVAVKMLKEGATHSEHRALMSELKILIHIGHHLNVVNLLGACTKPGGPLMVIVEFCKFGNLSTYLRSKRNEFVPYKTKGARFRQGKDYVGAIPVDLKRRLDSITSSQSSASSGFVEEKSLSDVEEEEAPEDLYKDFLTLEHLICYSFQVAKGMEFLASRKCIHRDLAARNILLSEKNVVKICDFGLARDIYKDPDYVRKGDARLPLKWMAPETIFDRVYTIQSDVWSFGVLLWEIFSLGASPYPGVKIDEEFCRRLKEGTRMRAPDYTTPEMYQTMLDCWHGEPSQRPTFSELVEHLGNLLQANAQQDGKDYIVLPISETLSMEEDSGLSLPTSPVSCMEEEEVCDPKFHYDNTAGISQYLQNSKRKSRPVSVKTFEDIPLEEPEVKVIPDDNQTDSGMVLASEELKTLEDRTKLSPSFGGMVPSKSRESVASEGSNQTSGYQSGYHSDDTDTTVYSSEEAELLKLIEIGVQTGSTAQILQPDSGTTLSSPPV

B1: 002 (mouse hybridoma antibody) (antibody, V domains shown)
VH: QVQLQQSGPELVKPGASVKISCKASGYAFSSSWMNWVKQRPGEGLEWIGRIFPGDGDTYYNGKFQVKATLTADKSSSTAYMQLSSLTSEDSAVYFCAIFLDTSGRYVDYWGQGTTLTISS
VL: DIVMTQSHKFMSTSVGDRVSITCKASQDVNTAVAWYQQKPGQSPKLLIYSASYRYIGVPDRFTGSGSGTDFTFTISSVQSEDLTVYYCQQHYRAPLTFGSGTKLELK
notes: Mouse antibody purified from hybridoma; also called mAb002; 11B8
For the molecule B1, the EC50 in assay [1] is 0.0168 µg/mL. For the same molecule, the “IC50 (read off the curve)” value in assay [2] was roughly 0.2 µg/mL. For the same molecule, the EC50 in assay [3] came out at 0.0462 µg/mL. Also, in assay [4], the IC50 is 0.0434 µg/mL. Further, in assay [5], the Kd turned out to be 5.98 nM, the koff stood at 0.000336 s⁻¹ and the kon was 56200 M⁻¹ s⁻¹.

B2: 018 (mouse hybridoma antibody) (antibody, V domains shown)
VH: EVKLVESGGGLVQPGGSLSLSCAVSGFTFTDYYMSWVRQPPGKALEWLGFIRNKANGYTTEYSASVKGRFTISRDNSQSILYLQMNALRAEDSATYYCARFDYYGSTYCFDYWGQGTTLTVSS
VL: DIVLTQSPASLAVSLGQRATISCRASQSVSTSSSSFMHWYQQKPGQPPKLLIKYASNLESGVPARFSGSGSGTDFTLNIHPVEEEDTATYYCQHTWEIPLTFGAGTKLELK
notes: Mouse antibody purified from hybridoma; also called mAb018; 16D9G2E8
For B2, the EC50 in assay [1] turned out to be 0.0129 µg/mL. Further, in assay [5], the Kd was found to be 5.11 nM, the koff amounted to 0.000452 s⁻¹ and the kon came out at 88400 M⁻¹ s⁻¹.

B3: 003 (mouse hybridoma antibody) (antibody, V domains shown)
VH: QVQLQQPGAELVKPGASVKMSCKASGYTFNTYWIMWVKQRPGQGLEWIGDIYPGTGSTNYNEKFKSKVTLTADTSSTTAYMQVSSLTSEDSAVYYCGRDSNPDYWGQGTTLTVSS
VL: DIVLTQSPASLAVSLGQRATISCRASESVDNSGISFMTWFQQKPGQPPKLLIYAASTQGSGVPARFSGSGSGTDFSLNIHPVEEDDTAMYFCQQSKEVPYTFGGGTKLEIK
notes: Mouse antibody purified from hybridoma; also called mAb003; 21B4
Turning to B3, the EC50 in assay [1] was 0.00769 µg/mL. In addition, in assay [5], the Kd stood at 0.235 nM, the koff came to 2.95e-05 s⁻¹ and the kon was 126000 M⁻¹ s⁻¹.

B4: 006 (mouse hybridoma antibody) (antibody, V domains shown)
VH: QAQLQQPGAELVKPGTSVKMSCKASGYTFNSYWIMWVKQSPGQGLEWIGDIYPGSGSTNYNEKFKSKVTLTVDTSSSTAYMQVSSLTSEDSAVYYCARDSNPDYWGQGTTLTVSS
VL: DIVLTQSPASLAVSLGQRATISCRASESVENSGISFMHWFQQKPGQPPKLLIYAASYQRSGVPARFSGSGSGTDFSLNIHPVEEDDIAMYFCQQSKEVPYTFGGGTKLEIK
notes: Mouse antibody purified from hybridoma; also called mAb006; 27E8A9D5
Take B4: in assay [1], the EC50 worked out at 0.0135 µg/mL. In assay [5], the Kd turned out to be 1.47 nM, the koff was found to be 0.000186 s⁻¹ and the kon is 127000 M⁻¹ s⁻¹.

B5: 042 (mouse hybridoma antibody) (antibody, V domains shown)
VH: EVQLVESGGDLVKPGGSLKLSCTASGFSFSIYGMSWVRQTPDKRLEWVASISVGGSYTYYADSVEGRFTISRENAKNTLYLQMNSLKSEDTALYYCARELDGNYDYWGQGTSLTVSS
VL: DIVITQNELSNPVTFGESVSISCRSSKSLLYKDGKTYLNWFLQRPGQSPQLLIYLMSTRASGVSDRFSGSGSGTDFTLEISRVKAEDVGVYYCQQLVEYPFTFGSGTKLEIK
notes: Mouse antibody purified from hybridoma; also called mAb042; 8G11G1B2C6
Consider B5, for which, in assay [1], the concentration giving a half-maximal response (EC50) was 0.0224 µg/mL. Also, the “IC50 (read off the curve)” value in assay [2] is roughly 0.1 µg/mL. Moreover, the EC50 in assay [3] came to 0.052 µg/mL. Also, the IC50 in assay [4] is 0.0629 µg/mL. Also, in assay [5], the Kd came to 0.573 nM, the koff is 4.88e-05 s⁻¹ and the kon was 85100 M⁻¹ s⁻¹.

B6: 54-H2L2 (humanized Mab54) (antibody, human IgG1, V domains shown)
VH: EVQLVESGGGLVKPGGSLRLSCAASGFTFSMYGMSWVRQAPGKRLEWVASISIGGSYTYYADSVKGRFTISRDNAKNTLYLQMNSLRAEDTAVYYCARELDGNYDYWGQGTTLTVSS
VL: DIVITQTPLSLPVTPGESVSISCRSSKSLLYKDGKTYLNWFLQRPGQSPQLLIYLMSTRASGVPDRFSGSGSGTDFTLKISRVEAEDVGVYYCQQLVEYPFTFGSGTKLEIK
notes: also called humanized 54 variant H2L2
Regarding B6, the EC50 in assay [6] turned out to be 0.0442 µg/mL. Moreover, in assay [5], the Kd was determined as 4.3 nM, the koff came out at 0.000128 s⁻¹ and the kon came out at 29700 M⁻¹ s⁻¹.

B7: 54-H1L1 (humanized Mab54) (antibody, human IgG1, V domains shown)
VH: EVQLVESGGGLVKPGGSLKLSCAASGFTFSMYGMSWVRQTPGKRLEWVASISIGGSYTYYADSVKGRFTISRDNAKNTLYLQMNSLKAEDTAVYYCARELDGNYDYWGQGTTLTVSS
VL: DIVITQDELSLPVTFGESVSISCRSSKSLLYKDGKTYLNWFLQRPGQSPQLLIYLMSTRASGVSDRFSGSGSGTDFTLKISRVEAEDVGIYYCQQLVEYPFTFGSGTKLEIK
notes: also called humanized 54 variant H1L1
For the molecule B7, the EC50 in assay [6] came out at 0.0221 µg/mL. Further, in assay [5], the Kd turned out to be 1.14 nM, the koff was found to be 5.15e-05 s⁻¹ and the kon was found to be 45100 M⁻¹ s⁻¹.

B8: 54-H1L2 (humanized Mab54) (antibody, human IgG1, V domains shown)
VH: EVQLVESGGGLVKPGGSLKLSCAASGFTFSMYGMSWVRQTPGKRLEWVASISIGGSYTYYADSVKGRFTISRDNAKNTLYLQMNSLKAEDTAVYYCARELDGNYDYWGQGTTLTVSS
VL: DIVITQTPLSLPVTPGESVSISCRSSKSLLYKDGKTYLNWFLQRPGQSPQLLIYLMSTRASGVPDRFSGSGSGTDFTLKISRVEAEDVGVYYCQQLVEYPFTFGSGTKLEIK
notes: also called humanized 54 variant H1L2
Regarding B8, in assay [6], the EC50 is 0.0706 µg/mL. Further, in assay [5], the Kd is 3.68 nM, the koff was found to be 0.000139 s⁻¹ and the kon is 37700 M⁻¹ s⁻¹.

B9: 48-H3L2 (antibody, V domains shown)
VH: EVQLVESGGGLVKPGGSLRLSCAASGFTFSMYGMSWVRQAPGKRLEWVASISIGGSYTYYADSVKGRFTISRDNAKNTLYLQMNSLRAEDTAVYYCAREMDGNYDYWGHGTTLTVSS
VL: DIVITQTPLSLPVTPGESVSISCRSSKSLLYKDGKTYLNWFLQRPGQSPQLLIYLMSTRASGVPDRFSGSGSGTDFTLKISRVEAEDVGVYYCQQLVEYPFTFGSGTKLEIK
notes: also called humanized Mab48 variant H3L2
For B9, the EC50 in assay [6] amounted to 0.0171 µg/mL.
